One block for each binder: values may come before it.
Legend:
[1] = biological target: T1, human NPR1 on CHO-K1 cells (human, UniProt P16066 33-1061); experiment: cell-based or functional assay
T1 sequence: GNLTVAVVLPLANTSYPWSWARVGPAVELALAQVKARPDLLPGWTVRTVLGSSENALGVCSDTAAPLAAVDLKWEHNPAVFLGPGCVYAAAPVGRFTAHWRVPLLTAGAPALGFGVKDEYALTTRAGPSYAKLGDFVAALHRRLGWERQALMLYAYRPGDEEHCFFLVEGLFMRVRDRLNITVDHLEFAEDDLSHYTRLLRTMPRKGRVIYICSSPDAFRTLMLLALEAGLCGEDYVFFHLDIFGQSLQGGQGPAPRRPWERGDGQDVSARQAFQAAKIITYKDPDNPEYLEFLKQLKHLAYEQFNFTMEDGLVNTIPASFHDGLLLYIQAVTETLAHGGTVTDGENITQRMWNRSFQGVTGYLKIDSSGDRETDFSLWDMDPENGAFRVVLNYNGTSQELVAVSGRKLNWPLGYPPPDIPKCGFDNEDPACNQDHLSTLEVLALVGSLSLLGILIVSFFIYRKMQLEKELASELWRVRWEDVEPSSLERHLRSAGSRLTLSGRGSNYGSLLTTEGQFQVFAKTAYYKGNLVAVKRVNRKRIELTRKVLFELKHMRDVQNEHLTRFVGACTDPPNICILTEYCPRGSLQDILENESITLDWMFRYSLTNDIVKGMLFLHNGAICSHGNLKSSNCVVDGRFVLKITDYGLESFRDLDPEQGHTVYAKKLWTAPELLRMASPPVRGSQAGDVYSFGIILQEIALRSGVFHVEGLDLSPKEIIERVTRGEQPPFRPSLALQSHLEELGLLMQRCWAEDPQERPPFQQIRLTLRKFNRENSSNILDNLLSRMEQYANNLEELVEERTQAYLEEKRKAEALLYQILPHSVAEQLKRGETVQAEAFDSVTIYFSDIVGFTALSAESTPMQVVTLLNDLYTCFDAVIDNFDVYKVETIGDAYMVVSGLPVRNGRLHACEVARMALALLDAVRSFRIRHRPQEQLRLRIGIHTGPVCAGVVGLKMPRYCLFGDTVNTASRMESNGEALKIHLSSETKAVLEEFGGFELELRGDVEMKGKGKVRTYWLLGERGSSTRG

[2] = biological target: T2, human Natriuretic Peptide Receptor 1 (hNPR1) (human, UniProt P16066 33-473, limits assumed); experiment: FabCys affinity (Octet per Table 18 comment)
T2 construct: pannings used NPR1-hFc; also called NPR1-hFc
T2 sequence: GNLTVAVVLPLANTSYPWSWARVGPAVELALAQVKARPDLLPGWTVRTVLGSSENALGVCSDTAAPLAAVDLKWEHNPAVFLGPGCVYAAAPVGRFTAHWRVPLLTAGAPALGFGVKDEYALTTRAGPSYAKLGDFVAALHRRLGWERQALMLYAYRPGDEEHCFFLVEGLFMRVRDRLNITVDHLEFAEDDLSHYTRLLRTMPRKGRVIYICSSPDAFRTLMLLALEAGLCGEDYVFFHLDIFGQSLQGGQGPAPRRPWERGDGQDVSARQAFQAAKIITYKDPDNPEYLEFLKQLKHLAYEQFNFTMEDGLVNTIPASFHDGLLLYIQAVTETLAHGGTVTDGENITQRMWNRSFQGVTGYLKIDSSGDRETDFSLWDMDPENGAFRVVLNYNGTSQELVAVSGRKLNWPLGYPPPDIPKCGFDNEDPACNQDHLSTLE

[3] = biological target: T3, hNPR1-ANP complex (human, UniProt P01160 124-151, limits assumed); experiment: FabCys affinity (Octet per Table 18 comment)
T3 construct: hNPR1 antigen in the presence of ANP; also called hNPR1 + 100 nM ANP
T3 sequence: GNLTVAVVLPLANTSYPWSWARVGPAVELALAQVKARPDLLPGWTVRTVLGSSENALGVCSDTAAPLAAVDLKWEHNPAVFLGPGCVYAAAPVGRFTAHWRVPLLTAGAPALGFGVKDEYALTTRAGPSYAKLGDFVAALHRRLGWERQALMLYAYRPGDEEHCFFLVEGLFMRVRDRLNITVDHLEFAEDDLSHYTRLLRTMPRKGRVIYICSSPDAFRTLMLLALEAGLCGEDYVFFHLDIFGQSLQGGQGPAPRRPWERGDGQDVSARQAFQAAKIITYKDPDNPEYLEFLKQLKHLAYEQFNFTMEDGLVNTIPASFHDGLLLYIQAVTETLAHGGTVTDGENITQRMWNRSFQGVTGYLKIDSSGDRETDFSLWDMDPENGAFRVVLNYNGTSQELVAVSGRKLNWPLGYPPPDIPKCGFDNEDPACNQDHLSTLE
T3 sequence (peptide): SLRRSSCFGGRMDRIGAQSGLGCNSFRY

[4] = biological target: T4, rNPR1-ANP complex (rat, UniProt P01160 124-151 (human entry), limits assumed); experiment: FabCys affinity (Octet per Table 18 comment)
T4 construct: rNPR1 antigen in the presence of ANP; also called rNPR1 + 100 nM ANP
T4 sequence: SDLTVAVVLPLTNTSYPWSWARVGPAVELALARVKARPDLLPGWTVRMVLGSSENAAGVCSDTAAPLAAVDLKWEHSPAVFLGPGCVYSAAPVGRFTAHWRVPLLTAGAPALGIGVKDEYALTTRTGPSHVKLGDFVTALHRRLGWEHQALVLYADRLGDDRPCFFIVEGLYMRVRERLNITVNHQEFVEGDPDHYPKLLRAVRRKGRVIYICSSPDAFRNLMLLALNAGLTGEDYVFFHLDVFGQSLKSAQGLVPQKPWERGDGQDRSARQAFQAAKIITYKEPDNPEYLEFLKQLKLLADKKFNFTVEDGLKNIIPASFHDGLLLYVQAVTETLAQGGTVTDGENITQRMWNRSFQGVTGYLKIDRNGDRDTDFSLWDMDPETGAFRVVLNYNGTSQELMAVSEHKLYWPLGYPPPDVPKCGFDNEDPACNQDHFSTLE
T4 sequence (peptide): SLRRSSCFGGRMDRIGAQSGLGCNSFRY

[5] = biological target: T2, human Natriuretic Peptide Receptor 1 …; experiment: FabCys, parental value by Octet (table comment), as in Table 14
[6] = biological target: T3, hNPR1-ANP complex; experiment: as above
[7] = biological target: T4, rNPR1-ANP complex; experiment: as above
[8] = biological target: T5, human NPR1 on CHO-K1 cells in the presence of ANP (human, UniProt P01160 124-151); experiment: flow cytometry (FL2-H) on hNPR1 CHO-K1 cells with saturating ANP, IgG titrated; control parental CHO-K1 [Cont.), panel XX07]
T5 construct: also called hNPR1 CHO K1 + 100 nM ANP
T5 sequence: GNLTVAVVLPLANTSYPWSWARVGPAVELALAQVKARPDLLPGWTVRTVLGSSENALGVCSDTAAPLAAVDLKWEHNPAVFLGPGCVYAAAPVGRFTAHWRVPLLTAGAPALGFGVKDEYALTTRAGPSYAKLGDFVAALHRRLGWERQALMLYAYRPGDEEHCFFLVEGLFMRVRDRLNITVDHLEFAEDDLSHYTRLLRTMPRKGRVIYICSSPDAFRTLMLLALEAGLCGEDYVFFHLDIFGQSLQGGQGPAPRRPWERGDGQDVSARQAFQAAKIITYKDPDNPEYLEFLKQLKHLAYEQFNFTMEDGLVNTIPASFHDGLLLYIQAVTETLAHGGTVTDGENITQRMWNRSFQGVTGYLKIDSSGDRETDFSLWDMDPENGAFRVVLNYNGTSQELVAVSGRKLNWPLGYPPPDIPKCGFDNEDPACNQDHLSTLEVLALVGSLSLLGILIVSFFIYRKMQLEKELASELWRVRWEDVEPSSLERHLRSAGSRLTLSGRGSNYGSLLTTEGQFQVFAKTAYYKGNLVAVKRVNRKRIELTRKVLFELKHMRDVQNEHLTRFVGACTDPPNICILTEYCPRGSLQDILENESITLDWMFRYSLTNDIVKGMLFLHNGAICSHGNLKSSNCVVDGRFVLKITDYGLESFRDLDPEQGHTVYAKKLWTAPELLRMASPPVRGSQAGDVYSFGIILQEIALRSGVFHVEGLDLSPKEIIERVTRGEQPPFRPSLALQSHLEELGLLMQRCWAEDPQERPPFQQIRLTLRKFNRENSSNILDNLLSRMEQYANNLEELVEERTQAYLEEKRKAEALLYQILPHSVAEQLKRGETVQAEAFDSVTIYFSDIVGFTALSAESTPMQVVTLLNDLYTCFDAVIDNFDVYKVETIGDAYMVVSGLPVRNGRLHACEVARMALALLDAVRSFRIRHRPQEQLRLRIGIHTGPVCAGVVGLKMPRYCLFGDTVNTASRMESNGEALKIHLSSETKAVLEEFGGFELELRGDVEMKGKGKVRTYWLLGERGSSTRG
T5 sequence (peptide): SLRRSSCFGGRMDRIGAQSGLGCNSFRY

[9] = biological target: T3, hNPR1-ANP complex; experiment: FRET ANP competition assay, IgG titrated on hNPR1 with Cy5-labeled ANP; negative values mean more ANP signal [Cont.), panel XX07]
Description: The same 31 IgGs were tested for ANP competition using a Fluorescence Resonance Energy Transfer (FRET)-based assay in which the NPR1-specific antibodies competed with ANP for binding to NPR1. In this FRET based assay (see FIG. 3), Eu-labeled Streptavidin (for measurement of IgGs) or Eu-labeled anti-hFc antibody (for measurement of FabCys) was used as an energy donor, while Cy5-labeled ANP was used as an acceptor (for all measurements). The resulting fluorescent signal was decreased by ANP-competitive antibodies. The assay was performed as follows: antibodies were mixed with NPR1 and incubated for 5 minutes at room temperature. […] After a further 60-minute incubation, readout was performed using a TECAN Infinite M1000 Pro using an excitation wavelength of 317 nm and an emission wavelength of 665 nm. Percentage of ANP competition was calculated according to the following formulae: […]
Furthermore, the clones were tested via ELISA for binding to the following antigens: human NPR1, constitutively active human NPR1 mutant (W74R), rat NPR1, human NPR3 (counter target), each in the absence and presence of ANP, and BSA. The clones were also analyzed by flow cytometry for binding to human NPR1 expressing CHO K1 cells in absence and presence of ANP (100 nM) and to parental CHO K1 cells.

[10] = biological target: T1, human NPR1 on CHO-K1 cells; experiment: cell-based or functional assay; remark: listed apart in the source
[11] = biological target: T3, hNPR1-ANP complex; experiment: FabCys affinity (Biacore per paragraph 323)
[12] = biological target: T4, rNPR1-ANP complex; experiment: FabCys affinity (Biacore per paragraph 323)
[13] = biological target: T3, hNPR1-ANP complex; experiment: FabCys, parental value by Biacore, as in Table 5
[14] = biological target: T4, rNPR1-ANP complex; experiment: FabCys, parental value by Biacore, as in Table 5

cGMP conc [nM] at 1 µM FabCys, +0.075 nM ANP [1]: 67 nM
cGMP conc [nM] at 1 µM FabCys, without ANP [1]: 18 nM
Kd [2]: 4.9 nM
Kd [3]: 1.1 nM
Kd [4]: 1 nM
Kd [5]: 4.9 nM
Kd [6]: 1.1 nM
Kd [7]: 1 nM
B1: YY04 (FabCys format) (Fab, V domains shown)
VH: EVQLVESGGGLVKPGGSLRLSCAASGFTFSNYWISWVRQAPGKGLEWVGRIKSKTYGGTTDYAEPVKGRFTISRDDSKNTLYLQMNSLKTEDTAVYYCAREKYSIRARGHGDYGFDVWGQGTLVTVSS
VL: DIQMTQSPSSLSASVGDRVTITCRASQGISNYLAWYQQKPGKVPKLLIYAASTLQSGVPSRFSGSGSGTDFTLTISSLQPEDVATYYCQQGYHAPFTFGQGTKVEIK
notes: Monovalent FabCys

EC50 (read off the curve) [8]: ~2 nM
EC50 (read off the curve) [9]: ~0.3 nM
B2: XX07 (IgG format) (antibody, V domains shown)
VH: QVQLLESGGGLVQPGGSLRLSCAASGFTFSSYWMNWVRQAPGKGLEWVSAISSDGSYTYYADSVKGRFTISRDNSKNTLYLQMNSLRAEDTAVYYCARDRYSMIYSYGAGAFDYWGQGTLVTVSS
VL: DIQMTQSPSSLSASVGDRVTITCRASQGISSYLAWYQQKPGKAPKLLIYTASTLQSGVPSRFSGSGSGTDFTLTISSLQPEDFATYYCQQIWTVPRTFGQGTKVEIK

cGMP conc [nM] at 2 µM FabCys, +0.075 nM ANP [10]: 121 nM
cGMP conc [nM] at 2 µM FabCys, without ANP [10]: 30 nM
Kd [11]: 1.5 nM
Kd [12]: 2 nM
Kd [13]: 1.5 nM
Kd [14]: 2 nM
B3: WW01 (FabCys format) (Fab, V domains shown)
VH: QVQLLESGGGLVQPGGSLRLSCAASGFTFNTHYIHWVRQAPGKGLEWVSSISGSGSNTYYADSVKGRFTISRDNSKNTLYLQMNSLRAEDTAVYYCARERGYVYYHMFDPWGQGTLVTVSS
VL: DIVLTQSPATLSLSPGERATLSCRASQSITRNYLAWYQQKPGQAPRLLIYGASSRATGIPARFSGSGSGTDFTLTISSLEPEDFAVYYCQQHSMYPRTFGQGTKVEIK
notes: Monovalent disulfide-bridged FabCys

Reference: patent publication US20240052042A1 (Novartis, published 2024)
